{"source": "patent US20210380678A1", "about": "(SURROZEN OPERATING, published 2021)", "binders": {"B1": {"name": "LP1-1F8 (antibody, V domains shown)", "VH": "EVKLVESGGGLVKPGGSLKLSCAASGFTFSTYTMSWVRQTPAKRLEWVATISSIGVNTYYPDSVKGRFTISRDNARNTLYLQVSSLRSEDTAMYYCARHVDYYDGISFDYWGQGTTLTVSS", "VL": "DIVMSQSPSSLAVSAGEKVTMSCKSSQSLFNSRTRKNYLAWYQQKPGQSPKLLIYWASTRESGVPDRFTGSGSGTDFTLTISSVQAEDLAVYYCKQSYYLLTFGAGTKLELK", "notes": "Hybridoma antibody as screened"}, "B2": {"name": "LP1-9C3 (antibody, V domains shown)", "VH": "QVTLKESGPGILQPSQTLSLTCSFSGFSLSTSYMGVSWIRKPSGKGLEWLAHIFWDDDKRYNPSLKSRLTISKDTSSNQVFLMITSVETADTATYYCGGPYYPFTYWGQGTLVTVSA", "VL": "DVVVTQTPLSLPVSFGDQVSISCRSSQSLANSYGNTYLSWYLHKPGQSPQLLIYGISNRFSGVPDRFSGSGSGTDFTLKISTIKPEDLGIYYCLQATHQPWTFGGGTKLEIK", "notes": "as for B1"}, "B3": {"name": "LP1-7I20 (antibody, V domains shown)", "VH": "EVKLVESGGGLVQPGGSLSLSCAASGFTFTDYYMSWVRQPPGKALEWLALIRNKANGYTTEYSASVKGRFTISRDNSQSILYLQMNALRAEDSATYYCAVTYGAYWGQGTLVTVSA", "VL": "DIQMTQSPASLSASVGETVTITCRTSENIYSYLAWYQQKQGKSPQLLVYNAKTLAKGVPSRFSGSGSGTQFSLKINGLQPEDFGNYYCQHHYGTPYTFGGGTKVEIK", "notes": "as for B1"}, "B4": {"name": "LP1-9M16 (antibody, V domains shown)", "VH": "EVQLQQSGPELVKPGASVKMSCKASGYTFTDYYMNWVKQSHGKSLEWIGRVNPNNGGSNYNQKFKGKATLTVDKSLSTAYMQLNSLTSEDSAVYYCASRNFDVWGAGTTVTVSS", "VL": "DIKMTQSPSSMYASLGERVTITCKASQDINSYLSWFQQKPGKSPKTLIYRANRLADGVPSRFSGSGSGQDYSLTISNLEYEDMGIYYCLQYDEFPLTFGAGTKLELK", "notes": "as for B1"}, "B5": {"name": "LP1-8M24 (antibody, V domains shown)", "VH": "QVQLQQSGAELARPGASVKLSCKASGYTFTNYGINWVKQRTGQGLEWIGEIFPRSDNTFYNEKFKGKATLTADKSSTTAYMELRSLTSEDSAVYFCARKGRDYGTSHYFDYWGQGTTLTVSS", "VL": "DIQMTQSPASLSVSVGETVTITCRISENIYSNLAWYQQKQGKSPHLLVYAAINLADGVPSRFSGSGSGTQFSLKINSLQSEDFGSYYCQHFWGTPFTFGSGTKLEIK", "notes": "as for B1"}, "B6": {"name": "LP1-10C22 (antibody, V domains shown)", "VH": "EVQLVESGGDLVKPGGSLKLSCAASGFTFSSYGMSWVRQTPDKRLEWVASISSGGSYTYYPDSVKGRFTISRDNAQNTLYLQMSSLKSEDTAMYYCVRHEEYGKSGFAYWGQGTLITVSA", "VL": "DVLMTQTPLSLPVSLGDQASISCRSSQGIVHSNGNIYLEWYLQKPGQSPKLLIYKVSNRFSGVPDRFSGSGSGTDFTLKISRVEAEDLGVYYCFQGSHVPPTFGGGTKLEIK", "notes": "as for B1"}, "B7": {"name": "LP1-7B13 (antibody, V domains shown)", "VH": "EVQLQQSGPEVVKPGASVKMSCKTSGFTFTDYYMNWVKQGHGKSLEWIGRVNPSNDDTRYNQKFKGKATLTVDKSLSTAYMQLNSLTSEDSAVYYCTRWFYFDYWGQGTTLTVSS", "VL": "DIVLTQSPATLSVTPGDRVSLSCRASQSISNYLHWYQQKSHESPRLLIKFASQSISGIPSRFSGSGSGTDFTLTINSVETEDFGMYFCQQSNSWPLTFGAGTKLELK", "notes": "as for B1"}}, "key": {"[1]": {"biological_target": "T1, human ASGR1 extracellular domain (hASGR1 ECD) (human, UniProt P07306 62-291, biotinylated (His-Avi tag))", "T1 construct": "His-Avi tag at the N-terminus, biotinylated for BLI; also called human ASGR1 ECD", "T1 sequence": "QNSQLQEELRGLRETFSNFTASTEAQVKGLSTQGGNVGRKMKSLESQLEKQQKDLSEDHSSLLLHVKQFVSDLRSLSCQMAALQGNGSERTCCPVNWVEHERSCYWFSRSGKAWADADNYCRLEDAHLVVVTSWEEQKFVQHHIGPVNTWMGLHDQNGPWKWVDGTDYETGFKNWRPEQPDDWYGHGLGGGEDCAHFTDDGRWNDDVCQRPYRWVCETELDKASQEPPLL", "experiment": "hybridoma screening on recombinant ECD"}, "[2]": {"biological_target": "T2, cynomolgus ASGR1 extracellular domain (cynoASGR1 ECD) (cynomolgus, UniProt P07306 62-291 (human entry))", "T2 construct": "Cloned with a His/Avi tag", "T2 chain": "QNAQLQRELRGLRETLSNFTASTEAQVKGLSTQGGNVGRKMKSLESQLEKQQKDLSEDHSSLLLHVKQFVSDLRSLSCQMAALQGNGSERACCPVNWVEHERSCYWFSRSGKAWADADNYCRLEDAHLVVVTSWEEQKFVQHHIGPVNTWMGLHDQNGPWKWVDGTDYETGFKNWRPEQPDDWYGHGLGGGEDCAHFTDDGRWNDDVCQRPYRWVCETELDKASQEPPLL", "experiment": "hybridoma screening on recombinant ECD"}}}
{"binder": "B1", "values": [{"measurement": "binding result", "setting": "[1]", "value": "binds"}, {"measurement": "binding result", "setting": "[2]", "value": "binds"}]}
{"binder": "B2", "values": [{"measurement": "binding result", "setting": "[1]", "value": "binds"}, {"measurement": "binding result", "setting": "[2]", "value": "binds"}]}
{"binder": "B3", "values": [{"measurement": "binding result", "setting": "[1]", "value": "binds"}, {"measurement": "binding result", "setting": "[2]", "value": "binds"}]}
{"binder": "B4", "values": [{"measurement": "binding result", "setting": "[1]", "value": "binds"}, {"measurement": "binding result", "setting": "[2]", "value": "binds"}]}
{"binder": "B5", "values": [{"measurement": "binding result", "setting": "[1]", "value": "binds"}, {"measurement": "binding result", "setting": "[2]", "value": "binds"}]}
{"binder": "B6", "values": [{"measurement": "binding result", "setting": "[1]", "value": "binds"}, {"measurement": "binding result", "setting": "[2]", "value": "binds"}]}
{"binder": "B7", "values": [{"measurement": "binding result", "setting": "[1]", "value": "binds"}, {"measurement": "binding result", "setting": "[2]", "value": "binds"}]}
